Measurements published in US20250296984A1, “THERAPEUTIC AND DIAGNOSTIC AGENTS AND USES THEREOF” (priority 2022, published 2025).
“And” between values parts separate entries of the source, which are not always exact repeats. Equal entries are not always repeated.

Key:
[1] = molecular target: Bio-Peptide-2 (human cytomegalovirus (4D variant)); test: ELISA, Bio-Peptide-2 coated
[2] = molecular target: Bio-Peptide-2 (human cytomegalovirus (4D variant)); test: ELISA (FIG. 5)
[3] = molecular target: Peptide 3 (human cytomegalovirus); test: HuProt array, 0.1 µg/ml
[4] = molecular target: Peptide-N-BSA (human cytomegalovirus); test: ELISA, Peptide-N-BSA coated

B1: US28-14-4E4-1E8 (antibody, mouse IgG1, kappa)
heavy: not shown
light: QIVLSQSPTIMSASPGEKVTMTCSASSSVSYMHWYQQKSGTSPKRWIYDSSKLASGVPARFSGSGSGTSYSLTISSMEAEDAATYYCQQWTSNPPITFGAGTKLELKRADAAPTVSIFPPSSEQLTSGGASVVCFLNNFYPKDINVKWKIDGSERQNGVLNSWTDQDSKDSTYSMSSTLTLTKDEYERHNSYTCEATHKTSTSPIVKSFNRNEC
[1]
  absorbance: 2.87

B2: US28-13-1C10-1C10 (antibody, mouse IgG1, kappa)
heavy: EVKLVESGGVLVKPGGSLKFSCAASGFTFSSHALSWVRQTPEKRLEWVASISSRGRTYYPDSVKGRFTVSRDNARNILYLQVSSLRSEDTAMYYCTRGGTHYSYGNGFDFWGQGTTLTVSSAKTTPPSVYPLAPGSAAQTNSMVTLGCLVKGYFPEPVTVTWNSGSLSSGVHTFPAVLQSDLYTLSSSVTVPSSTWPSETVTCNVAHPASSTKVDKKIVPRDCGCKPCICTVPEVSSVFIFPPKPKDVLTITLTPKVTCVVVDISKDDPEVQFSWFVDDVEVHTAQTQPREEQFNSTFRSVSELPIMHQDWLNGKEFKCRVNSAAFPAPIEKTISKTKGRPKAPQVYTIPPPKEQMAKDKVSLTCMITDFFPEDITVEWQWNGQPAENYKNTQPIMDTDGSYFIYSKLNVQKSNWEAGNTFTCSVLHEGLHNHHTEKSLSHSPGK
light: QIVLTQSPAIMSASPGEKVTMTCSVSSSVSYMHWYQQKSGTSPKRWIYDTSKLASGVPARFSGSGSGTSYSLTISTMEAEDAATYYCQQWSNNPPITFGAGTKLELKRADAAPTVSIFPPSSEQLTSGGASVVCFLNNFYPKDINVKWKIDGSERQNGVLNSWTDQDSKDSTYSMSSTLTLTKDEYERHNSYTCEATHKTSTSPIVKSFNRNEC
[1]
  absorbance: 3.03

B3: US28-13-1H3-1A10 (antibody, mouse IgG1, kappa)
heavy: EVKLVESGGVLVKPGGSLKFSCAASGFTLSSHALSWVRQTPEKRLEWVASISSRGRTYYPDSVKGRFTVSRDNARNILYLQVSSLRSEDTAMYYCTRGGTHYSYGNGFDFWGQGTTLTVSSAKTTPPSVYPLAPGSAAQTNSMVTLGCLVKGYFPEPVTVTWNSGSLSSGVHTFPAVLQSDLYTLSSSVTVPSSTWPSETVTCNVAHPASSTKVDKKIVPRDCGCKPCICTVPEVSSVFIFPPKPKDVLTITLTPKVTCVVVDISKDDPEVQFSWFVDDVEVHTAQTQPREEQFNSTFRSVSELPIMHQDWLNGKEFKCRVNSAAFPAPIEKTISKTKGRPKAPQVYTIPPPKEQMAKDKVSLTCMITDFFPEDITVEWQWNGQPAENYKNTQPIMDTDGSYFIYSKLNVQKSNWEAGNTFTCSVLHEGLHNHHTEKSLSHSPGK
light: QIVLTQSPAIMSASPGEKVTMTCSVSSSVSYMHWYQQKSGTSPKRWIYDTSKLASGVPARFSGSGSGTSYSLTISTMEAEDAATYYCQQWSNNPPITFGAGTKLELKRADAAPTVSIFPPSSEQLTSGGASVVCFLNNFYPKDINVKWKIDGSERQNGVLNSWTDQDSKDSTYSMSSTLTLTKDEYERHNSYTCEATHKTSTSPIVKSFNRNEC
[1]
  absorbance: 2.84

B4: US28-13-1C10-1G9 (antibody, mouse IgG1, kappa)
heavy: not shown
light: QIVLTQSPAIMSASPGEKVTMTCSASSSVSYMHWYQQKSGTSPKRWIYDTSKLASGVPARFSGSGSGTSYSLTISSMEAEDAATYYCQQWSSNPPLTFGAGTKLELKRADAAPTVSIFPPSSEQLTSGGASVVCFLNNFYPKDINVKWKIDGSERQNGVLNSWTDQDSKDSTYSMSSTLTLTKDEYERHNSYTCEATHKTSTSPIVKSFNRNEC
[1]
  absorbance: 3.06

B5: US28-13-5G6-1D3 (antibody)
heavy: EVKLVESGGGLVQPGGSLRLACATSGFTFTDYYMSWVRQPPGKALEWLGFIRSKANGYTTEYSASVKGRFTISRDNSQSILYLQMNTLRSEDSATYYCARDERRTAWLAYWGQGTLVTVSAAKTTPPSVYPLAPGSAAQTNSMVTLGCLVKGYFPEPVTVTWNSGSLSSGVHTFPAVLQSDLYTLSSSVTVPSSTWPSETVTCNVAHPASSTKVDKKIVPRDCGCKPCICTVPEVSSVFIFPPKPKDVLTITLTPKVTCVVVDISKDDPEVQFSWFVDDVEVHTAQTQPREEQFNSTFRSVSELPIMHQDWLNGKEFKCRVNSAAFPAPIEKTISKTKGRPKAPQVYTIPPPKEQMAKDKVSLTCMITDFFPEDITVEWQWNGQPAENYKNTQPIMDTDGSYFIYSKLNVQKSNWEAGNTFTCSVLHEGLHNHHTEKSLSHSPGK
light: DVLMTQTPLSLPVSLGDQASISCRSSQSIVHSNGNTYLDWYLQKPGQSPKLLIYKVSNRFSGVPDRFSGSGSGTDFTLKISRVEAEDLGVYYCFQGSHVPTWTFGGGTKLEIKRADAAPTVSIFPPSSEQLTSGGASVVCFLNNFYPKDINVKWKIDGSERQNGVLNSWTDQDSKDSTYSMSSTLTLTKDEYERHNSYTCEATHKTSTSPIVKSFNRNEC
[2]
  fold binding over BSA control: 27 fold and 28 fold

B6: US28-4-7B1F3 (antibody, mouse IgG1, kappa)
heavy: EVQLQQSGAELAKPGASVKMSCKASGYTFTNYWMHWVKQRPGQGLEWIGYVNPRTGYTEYNQKFKDKATLTADKSSRTAYMQLSSLTSEDSAVYSCARILNGTGFAYWGQGTLVTVSAAKTTPPSVYPLAPGSAAQTNSMVTLGCLVKGYFPEPVTVTWNSGSLSSGVHTFPAVLQSDLYTLSSSVTVPSSTWPSETVTCNVAHPASSTKVDKKIVPRDCGCKPCICTVPEVSSVFIFPPKPKDVLTITLTPKVTCVVVDISKDDPEVQFSWFVDDVEVHTAQTQPREEQFNSTFRSVSELPIMHQDWLNGKEFKCRVNSAAFPAPIEKTISKTKGRPKAPQVYTIPPPKEQMAKDKVSLTCMITDFFPEDITVEWQWNGQPAENYKNTQPIMDTDGSYFIYSKLNVQKSNWEAGNTFTCSVLHEGLHNHHTEKSLSHSPGK
light: DIVLTQSPSSLTVSVGEKFTMSCKSSQSLLYSSNQKNYLAWYQQKPGQSPKLLIYWASTRESGVPDRFTGSGSGTDFTLAISSVKPEDLAIYYCQQYYSFPLTFGAGTKLEIKRADAAPTVSIFPPSSEQLTSGGASVVCFLNNFYPKDINVKWKIDGSERQNGVLNSWTDQDSKDSTYSMSSTLTLTKDEYERHNSYTCEATHKTSTSPIVKSFNRNEC
[3]
  F635: 50000 AU
  S Score: 116
  Z Score: 145
[4]
  absorbance: 2.8
